Laboratory results reported in paper doi:10.1101/2020.04.20.049213 (bioRxiv, 2020).

Molecular target: T1, JARID2 (aa 1-450) (human, UniProt Q92833 1-450, K116me3 (trimethyl-lysine at 116))
T1 sequence: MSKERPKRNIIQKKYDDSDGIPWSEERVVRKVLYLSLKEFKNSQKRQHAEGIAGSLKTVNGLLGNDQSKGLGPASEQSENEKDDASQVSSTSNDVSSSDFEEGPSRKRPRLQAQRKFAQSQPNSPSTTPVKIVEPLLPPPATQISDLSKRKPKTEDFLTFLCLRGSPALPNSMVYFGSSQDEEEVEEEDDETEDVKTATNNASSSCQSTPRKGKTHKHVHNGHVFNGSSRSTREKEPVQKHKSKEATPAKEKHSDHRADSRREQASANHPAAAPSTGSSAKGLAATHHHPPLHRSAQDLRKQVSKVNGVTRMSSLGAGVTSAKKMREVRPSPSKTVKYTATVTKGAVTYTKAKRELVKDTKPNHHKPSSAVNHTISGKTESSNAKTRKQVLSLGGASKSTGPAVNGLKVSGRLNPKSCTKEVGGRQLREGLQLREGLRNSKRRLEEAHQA
Experiment: cryo-EM structure

B1: EED (aa 80-441) (domain or fragment)
chain: not shown
B1: binds.
